# Paper PMC9482650, “Quantitative fragmentomics allow affinity mapping of interactomes” (Nature Communications, 2022)
# T1: ARHGAP21, Q5T5U3
# T1 sequence (Q5T5U3 45-169, limits assumed, looked up): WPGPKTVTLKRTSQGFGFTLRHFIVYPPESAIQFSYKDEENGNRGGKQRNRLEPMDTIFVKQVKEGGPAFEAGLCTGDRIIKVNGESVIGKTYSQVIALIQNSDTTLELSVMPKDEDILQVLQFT
# T2: MPDZ_5, O75970
# T2 sequence (O75970 695-796, limits assumed, looked up): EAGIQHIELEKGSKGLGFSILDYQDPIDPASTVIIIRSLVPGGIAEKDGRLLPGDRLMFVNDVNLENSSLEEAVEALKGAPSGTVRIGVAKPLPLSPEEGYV
# T3: MPDZ_10, O75970
# T3 sequence (O75970 1624-1722, limits assumed, looked up): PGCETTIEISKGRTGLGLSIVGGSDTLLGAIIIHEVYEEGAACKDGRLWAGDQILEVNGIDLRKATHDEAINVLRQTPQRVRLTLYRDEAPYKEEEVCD
# T4: MPP7, Q5T2T1
# T4 sequence (Q5T2T1 134-230, limits assumed, looked up): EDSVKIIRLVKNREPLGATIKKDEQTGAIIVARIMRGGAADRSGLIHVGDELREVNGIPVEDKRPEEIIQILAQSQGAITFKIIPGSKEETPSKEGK
# T5: HTRA3, P83110
# T5 sequence (P83110 354-453, limits assumed, looked up): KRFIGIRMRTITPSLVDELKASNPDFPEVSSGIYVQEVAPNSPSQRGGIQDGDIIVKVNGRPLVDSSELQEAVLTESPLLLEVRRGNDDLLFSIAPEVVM
# T6: SNTB1, Q13884
# T6 sequence (Q13884 107-205, limits assumed, looked up): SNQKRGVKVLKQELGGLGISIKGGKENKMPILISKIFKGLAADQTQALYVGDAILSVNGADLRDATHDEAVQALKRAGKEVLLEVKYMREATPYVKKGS
# T7: DFNB31_2, Q9P202
# T7 sequence (Q9P202 274-371, limits assumed, looked up): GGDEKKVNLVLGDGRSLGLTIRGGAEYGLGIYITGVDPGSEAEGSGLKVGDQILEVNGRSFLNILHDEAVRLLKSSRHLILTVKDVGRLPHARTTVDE
# T8: LRRC7, Q96NW7
# T8 sequence (Q96NW7 1440-1537, limits assumed, looked up): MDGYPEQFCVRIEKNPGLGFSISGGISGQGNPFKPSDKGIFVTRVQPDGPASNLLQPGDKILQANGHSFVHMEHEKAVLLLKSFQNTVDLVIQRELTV
# T9: RHPN1, Q8TCX5
# T9 sequence (Q8TCX5 508-602, limits assumed, looked up): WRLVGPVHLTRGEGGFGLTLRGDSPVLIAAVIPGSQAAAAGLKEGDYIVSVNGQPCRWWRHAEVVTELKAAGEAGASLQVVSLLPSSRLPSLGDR
# T10: PDZRN3_1, Q9UPQ7
# T10 sequence (Q9UPQ7 244-349, limits assumed, looked up): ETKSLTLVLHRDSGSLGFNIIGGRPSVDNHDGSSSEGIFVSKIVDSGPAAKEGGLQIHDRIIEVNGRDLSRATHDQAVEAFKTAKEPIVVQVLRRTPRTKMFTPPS
# T11: FRMPD1, Q5SYB0
# T11 sequence (Q5SYB0 52-145, limits assumed, looked up): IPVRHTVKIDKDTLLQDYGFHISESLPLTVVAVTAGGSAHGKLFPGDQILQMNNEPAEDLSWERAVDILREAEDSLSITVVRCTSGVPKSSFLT
# Columns and labels:
# Assay in all cases: holdup assay
# Parameters in all cases: key: below the threshold = too weak to quantify, mostly under pKd 3.1 to 4
# Settings in all cases: plain residues with an end cap or a label only (N-terminal biotin on a linker: ado-ado)
# [1] = biological target: T1, ARHGAP21, Q5T5U3
# [2] = biological target: GRIP2_6, Q9C0E4
# [3] = biological target: FRMPD2_2, Q68DX3
# [4] = biological target: GORASP1, Q9BQQ3
# [5] = biological target: T2, MPDZ_5, O75970
# [6] = biological target: NHERF4_4, Q86UT5
# [7] = biological target: Inadl_3, Q8NI35
# [8] = biological target: T3, MPDZ_10, O75970
# [9] = biological target: T4, MPP7, Q5T2T1
# [10] = biological target: Inadl_1, Q8NI35
# [11] = biological target: PDLIM1, O00151
# [12] = biological target: T5, HTRA3, P83110
# [13] = biological target: TJP1_2, Q07157
# [14] = biological target: IL16_1, Q14005
# [15] = biological target: DLG4_1, P78352
# [16] = biological target: SCRIB_3, Q14160
# [17] = biological target: T6, SNTB1, Q13884
# [18] = biological target: GORASP2, Q9H8Y8
# [19] = biological target: T7, DFNB31_2, Q9P202
# [20] = biological target: T8, LRRC7, Q96NW7
# [21] = biological target: DLG2_3, Q15700
# [22] = biological target: SCRIB_1, Q14160
# [23] = biological target: NHERF4_1, Q86UT5-2
# [24] = biological target: Inadl_4, Q8NI35
# [25] = biological target: T9, RHPN1, Q8TCX5
# [26] = biological target: T10, PDZRN3_1, Q9UPQ7
# [27] = biological target: T11, FRMPD1, Q5SYB0
# Sequence of Inadl_4, Q8NI35 (Q8NI35 547-651): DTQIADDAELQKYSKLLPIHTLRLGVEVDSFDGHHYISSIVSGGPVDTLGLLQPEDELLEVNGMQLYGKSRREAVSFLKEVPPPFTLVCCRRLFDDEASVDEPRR
# Sequence of DLG4_1, P78352 (P78352 62-152): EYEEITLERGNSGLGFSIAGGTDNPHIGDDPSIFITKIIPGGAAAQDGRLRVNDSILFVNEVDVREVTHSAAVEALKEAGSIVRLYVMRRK
# Sequence of GRIP2_6, Q9C0E4 (Q9C0E4 648-740): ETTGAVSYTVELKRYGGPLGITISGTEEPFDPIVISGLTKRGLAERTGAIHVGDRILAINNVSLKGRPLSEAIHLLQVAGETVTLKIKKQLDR
# Sequence of NHERF4_1, Q86UT5-2 (Q86UT5 other isoform, or with tags, fused parts or gaps): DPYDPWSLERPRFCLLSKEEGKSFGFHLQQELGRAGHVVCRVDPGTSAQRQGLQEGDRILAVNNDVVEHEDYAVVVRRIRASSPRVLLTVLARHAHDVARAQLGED
# Sequence of PDLIM1, O00151 (O00151 1-87): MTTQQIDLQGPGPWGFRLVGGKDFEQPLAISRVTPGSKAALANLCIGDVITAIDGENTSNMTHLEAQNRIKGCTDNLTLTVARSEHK
# Sequence of Inadl_3, Q8NI35 (Q8NI35 359-469): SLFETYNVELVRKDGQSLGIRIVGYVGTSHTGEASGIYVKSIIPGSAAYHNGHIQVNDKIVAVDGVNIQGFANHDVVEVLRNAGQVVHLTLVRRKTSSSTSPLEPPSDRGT
# Sequence of TJP1_2, Q07157 (Q07157 181-274): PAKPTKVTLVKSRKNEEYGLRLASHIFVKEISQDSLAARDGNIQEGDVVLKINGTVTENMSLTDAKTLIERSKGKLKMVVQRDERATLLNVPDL
# Sequence of IL16_1, Q14005 (Q14005 210-306): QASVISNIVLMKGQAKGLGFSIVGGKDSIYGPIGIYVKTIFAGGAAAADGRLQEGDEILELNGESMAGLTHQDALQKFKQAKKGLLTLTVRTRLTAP
# Sequence of NHERF4_4, Q86UT5 (Q86UT5 464-550): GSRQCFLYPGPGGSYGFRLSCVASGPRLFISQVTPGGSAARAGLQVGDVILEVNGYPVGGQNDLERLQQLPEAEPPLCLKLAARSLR
# Sequence of GORASP1, Q9BQQ3 (Q9BQQ3 1-208): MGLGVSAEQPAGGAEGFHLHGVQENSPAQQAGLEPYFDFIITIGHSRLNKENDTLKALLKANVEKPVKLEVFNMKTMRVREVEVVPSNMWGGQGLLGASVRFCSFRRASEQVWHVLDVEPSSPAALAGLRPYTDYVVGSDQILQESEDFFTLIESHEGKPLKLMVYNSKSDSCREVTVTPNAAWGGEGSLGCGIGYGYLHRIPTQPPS
# Sequence of SCRIB_3, Q14160 (Q14160 999-1103): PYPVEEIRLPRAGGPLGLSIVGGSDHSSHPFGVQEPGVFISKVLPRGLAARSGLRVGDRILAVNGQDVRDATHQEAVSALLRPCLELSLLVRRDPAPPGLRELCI
# Sequence of FRMPD2_2, Q68DX3 (Q68DX3 944-1038): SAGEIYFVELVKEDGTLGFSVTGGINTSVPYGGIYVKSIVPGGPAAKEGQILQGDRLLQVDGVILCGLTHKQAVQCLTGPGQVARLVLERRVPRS
# Sequence of Inadl_1, Q8NI35 (Q8NI35 113-229): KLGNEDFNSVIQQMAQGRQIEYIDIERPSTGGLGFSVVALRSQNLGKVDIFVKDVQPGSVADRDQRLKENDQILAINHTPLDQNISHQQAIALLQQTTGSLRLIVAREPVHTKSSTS
# Sequence of SCRIB_1, Q14160 (Q14160 718-814): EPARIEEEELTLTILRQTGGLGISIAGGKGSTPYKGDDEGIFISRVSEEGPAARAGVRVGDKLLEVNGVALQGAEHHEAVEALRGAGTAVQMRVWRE
Binder,pKd [1],pKd [2],pKd [3],pKd [4],pKd [5],pKd [6],pKd [7],pKd [8],pKd [9],pKd [10],pKd [11],pKd [12],pKd [13],pKd [14],pKd [15],pKd [16],pKd [17],pKd [18],pKd [19],pKd [20],further results
"PLPPEEESWV [GAS2L2, Q8NHY3]",4.15,below the threshold,6.16,4.22,3.79,below the threshold,3.78,below the threshold,3.57,3.55,4.22,5.59,below the threshold,5.24,4.03,4.99,4.86,4.48,below the threshold,4.96,pKd [21]: 3.86; pKd [22]: 4.21; pKd [23]: below the threshold; pKd [24]: below the threshold; pKd [25]: 4.43; pKd [26]: 3.52; pKd [27]: below the threshold
"NISARRFTLC [FAM167B, Q9BTA0]",below the threshold,3.57,3.67,3.9,below the threshold,below the threshold,below the threshold,below the threshold,below the threshold,below the threshold,below the threshold,4.54,below the threshold,below the threshold,4.35,below the threshold,3.52,3.9,below the threshold,below the threshold,pKd [21]: 4.43; pKd [22]: below the threshold; pKd [23]: 4.27; pKd [24]: below the threshold; pKd [25]: below the threshold; pKd [26]: below the threshold; pKd [27]: below the threshold
"RSPVATATSC [DUSP5, Q16690]",below the threshold,below the threshold,below the threshold,below the threshold,below the threshold,below the threshold,below the threshold,below the threshold,below the threshold,below the threshold,below the threshold,3.89,below the threshold,below the threshold,below the threshold,3.56,below the threshold,below the threshold,below the threshold,below the threshold,pKd [21]: 3.7; pKd [22]: below the threshold; pKd [23]: 3.59; pKd [24]: below the threshold; pKd [25]: below the threshold; pKd [26]: below the threshold; pKd [27]: below the threshold
"LVEEEEPMNL [HDAC7, Q8WUI4]",3.77,below the threshold,below the threshold,below the threshold,below the threshold,3.78,below the threshold,below the threshold,below the threshold,below the threshold,below the threshold,below the threshold,below the threshold,below the threshold,below the threshold,below the threshold,below the threshold,below the threshold,below the threshold,below the threshold,pKd [21]: below the threshold; pKd [22]: below the threshold; pKd [23]: 3.57; pKd [24]: below the threshold; pKd [25]: below the threshold; pKd [26]: below the threshold; pKd [27]: below the threshold
"ADEMICITTL [CACNA1D, Q01668]",3.67,below the threshold,3.86,4,below the threshold,3.73,4.53,below the threshold,below the threshold,4.33,below the threshold,below the threshold,below the threshold,below the threshold,below the threshold,4.88,4.84,4.05,below the threshold,3.8,pKd [21]: 3.81; pKd [22]: 4.89; pKd [23]: 4.52; pKd [24]: below the threshold; pKd [25]: 5.05; pKd [26]: below the threshold; pKd [27]: below the threshold
